Residue numbers refer to the chain shown, from its start. Numbers in names are those of the source.

Assay type in all cases: biochemical
Data set [1] is described as follows: Relative enzymatic activity of GLD (DCIP/1-m-PMS, plate reader, yeast culture supernatant) with 1,10-phenanthroline present. To be noted: for Relative Activity: random-mutation mutants, sample value with inhibitor at 1 mM / blank value, inhibitor not named in Table 1; for Relative Activity [%] 1,10-Phenanthroline: site-specific mutants, inhibitor final concentration 1 mM. Summed up: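 Inhibitor at 1 mM final substitutes for the methanol in the reagent, and the sample rate is expressed as % of the inhibitor-free blank. Rates come from ΔA600/min of DCIP with glucose and 1-m-PMS at pH 7.0, using supernatants of YPD-grown yeast clones (24 h, 30° C.).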

Data set [2] can be described thus: Susceptibility of purified enzyme to proflavin hydrochloride (spectrophotometer). The conditions noted are these: inhibitor 1 mM. The method, then:
(§1) 1.0 mL of 0.1 M potassium phosphate buffer (pH 7.0), 1.0 mL of 1.0 M D-glucose, 0.14 mL of 3 mM 2,6-dichlorophenol indophenol (hereinafter referred to as DCIP), 0.2 mL of 3 mM 1-methoxy-5-methylphenazinium methylsulfate (hereinafter referred to as 1-m-PMS), 0.06 mL of methanol and 0.55 mL of distilled water are added to a 3-mL quartz cell (light path length: 1 cm), and the cell is placed in a spectrophotometer provided with a thermostat cell holder and incubated at 37° C. for 10 minutes. Thereafter, 0.05 mL of an enzyme solution is added to the cell, and then, a change in the absorbance of DCIP at 600 nm (ΔABS/min) is determined. The molar extinction coefficient of DCIP at pH 7.0 is taken as 16.3×10^3 cm^−1 M^−1, and enzymatic activity to reduce 1 μmol of DCIP per minute is substantially equivalent to 1 unit of the enzymatic activity. Therefore, the enzymatic activity is determined from the change in the absorbance according to Equation I. In Example 8, methanol was replaced with the same amount of distilled water.
(§2) In the following examples, a value of the enzymatic activity determined by the spectrometer or plate reader using the above reagent composition is considered as a blank value. On the other hand, a sample value is determined using a methanol solution comprising the inhibitor such as 1,10-phenanthroline or proflavin hydrochloride at a final concentration of 1 mM instead of the methanol. Enzymatic activity (unit/mL)=(−ΔABS/16.3)×3.0/0.05×(Dilution ratio of enzyme) [Equation 1]
(§3) The mutants having the mutation of H341W and F432L, respectively, were inoculated into a shake flask containing 150 mL the YPD medium. After shaking culture at 30° C. and 120 rpm for 48 hours, the culture mixture was centrifuged at 3,000×g for 5 min. and the supernatant was filtered through a membrane filter with 10 μm. […]
(§4) After diluting the purified enzyme to an appropriate concentration, the sample value and blank value were determined in accordance with the method for determination of the enzymatic activity using the spectrophotometer.

Data set [3] is described as follows: Susceptibility to 1,10-phenanthroline at a high concentration. The method, then:
as §1
The enzymatic activity is determined in the following manner in Examples 3 and 6 wherein a plate reader (Japan Molecular Device Corporation, SpectraMax Plus384) is used. Thus, culture supernatant that had been diluted in advance with an appropriate magnification is added to a 96-well microplate with an amount of 100 μl per well. A reagent for the determination of the enzymatic activity comprising phosphate buffer (pH 7.0), 1.0 M D-glucose, 3 mM DCIP, 3 mM 1-m-PMS and methanol with a volume ratio of 0.1:1:0.14:0.2:0.06 is added to the 96-well microplate with an amount of 100 μl per well, and a change in the absorbance of DCIP at 600 nm (ΔABS/min) is then determined. The enzymatic activity can be calculated by conversion in proportion to a change in the absorbance of an enzyme solution for which the enzymatic activity has already been known by the above-mentioned activity determination procedure using the spectrophotometer.
as §2
The relative activity was determined in the same manner as in Examples 3 and 6 in the co-existence of the inhibitors at a high concentration.

Data set [4] is described as follows: Relative enzymatic activity of GLD (DCIP/1-m-PMS, plate reader, yeast culture supernatant) with proflavin hydrochloride present. The conditions noted are these: site-specific mutants, inhibitor final concentration 1 mM. Summed up:
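Culture supernatant diluted and mixed with reagent of phosphate buffer pH 7.0, 1.0 M D-glucose, 3 mM DCIP, 3 mM 1-m-PMS and methanol (0.1:1:0.14:0.2:0.06). DCIP absorbance decrease at 600 nm followed; proflavin hydrochloride in methanol replaced methanol at 1 mM final. Activity expressed as % of inhibitor-free blank.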

Data set [5] is described as follows: Susceptibility to proflavin at a high concentration. The conditions noted are these: final conc. 2 mM. The method, then:
as §1, with “The molar extinction coefficient of DCIP at pH 7.0 is taken as 16.3×10^3 cm^−1 M^−1, and enzymatic activity to reduce 1 μmol of DCIP per minute is substantially equivalent to 1 unit of the enzymatic activity.” left out
The enzymatic activity is determined in the following manner in Examples 3 and 6 wherein a plate reader (Japan Molecular Device Corporation, SpectraMax Plus384) is used. […] A reagent for the determination of the enzymatic activity comprising phosphate buffer (pH 7.0), 1.0 M D-glucose, 3 mM DCIP, 3 mM 1-m-PMS and methanol with a volume ratio of 0.1:1:0.14:0.2:0.06 is added to the 96-well microplate with an amount of 100 μl per well, and a change in the absorbance of DCIP at 600 nm (ΔABS/min) is then determined. […]

The nature of data set [6]: Susceptibility of purified enzyme to 1,10-phenanthroline (spectrophotometer). To be noted: inhibitor 1 mM. The method, then:
as §1, §2, §3, §4

B1: F432L: modified GLD: SEQ ID NO: 1 with substitution F432L (protein, listed as Aspergillus terreus)
chain: MLGKLSFLSALSLAVAAPLSNSTSAKYDYIVIGGGTSGLAVANRLSEDPNVNVLILEAGGSVWNNPNVTNVDGYGLAFGSDIDWQYQSVNQPYGGNLSQVLRAGKALGGTSTINGMAYTRAEDVQIDAWETIGNTGWTWKNLFPYYRKSENFTVPTKSQTSLGASYEAGAHGHEGPLDVAFTQIESNNLTTYLNRTFQGMGLPWTEDVNGGKMRGFNLYPSTVNLEEYVREDAARAYYWPYKSRPNLHVLLNTFANRIVWDGEAHDGHITASGVEITSRNGTVRVINAEKEVIVSAGALKSPAILELSGIGNPSVLDKHNIPVKVNLPTVGENLQDQVNSHMDASGNTSISGTKAVSYPDVYDVFGDEAESVAKQIRANLKQYAADTAKANGNIMKAADLERLFEVQYDLIFKGRVPIAEVLNYPGSATSVLAEFWALLPFARGSVHIGSSNPAEFPVINPNYFMLDWDAKSYVAVAKYIRRSFESYPLSSIVKESTPGYDVIPRNASEQSWKEWVFDKNYRSNFHPVGTAAMMPREIGGVVDERLNVYGTTNVRVVDASVLPFQVCGHLVSTLYAVAERAADLIKADAGRR
modifications: SIGNAL (1)..(19)
Consider B1, for which the “Relative Activity” value in data set [1] is 80.4%. The “Relative Activity [%] 1,10-Phenanthroline” value in data set [1] came to 91.7%; in data set [6], 90.8%. Also, the “Relative Activity [%] Proflavin hydrochloride” value in data set [2] worked out at 88.1%; in data set [4] it was 68.1%. In addition, the “Relative Activity[%]” value in data set [3] (final conc. 1 mM) was 97.0%; in data set [3] (final conc. 5 mM), 64.2%; in data set [3] (final conc. 10 mM), 47.2%; in data set [3] (final conc. 20 mM), 32.1%; in data set [5], 91.6%.

B2: H341W: modified GLD: SEQ ID NO: 1 with substitution H341W (protein, listed as Aspergillus terreus)
chain: B1 chain with H341W, L432F
modifications: SIGNAL (1)..(19)
On to B2, for which the figures for the “Relative Activity [%] 1,10-Phenanthroline” value in data set [1] and in data set [6] were 100.3% and 89.5%, respectively. Besides, the figures for the “Relative Activity [%] Proflavin hydrochloride” value in data set [2] and in data set [4] were 144.3% and 88.4%, respectively. In addition, the “Relative Activity[%]” value in data set [3] (final conc. 1 mM) is listed as 99.4%; in data set [3] (final conc. 5 mM), 78.1%; in data set [3] (final conc. 10 mM), 63.2%; in data set [3] (final conc. 20 mM), 45.8%; in data set [5], 138.2%.

B3: Wild-type: wild-type FAD-conjugated glucose dehydrogenase (GLD) of Aspergillus terreus FERM BP-08578, SEQ ID NO: 1 (protein, listed as Aspergillus terreus)
chain: B1 chain with L432F
modifications: FAD cofactor; SIGNAL (1)..(19)
For B3, the “Relative Activity” value in data set [1] stood at 25.7%. Further, the “Relative Activity [%] 1,10-Phenanthroline” value is given as 30.0% in data set [1] and 41.1% in data set [6]. Moreover, the “Relative Activity [%] Proflavin hydrochloride” value in data set [2] stood at 50.9%; in data set [4], 35.0%.

B4: G426D: modified GLD: SEQ ID NO: 1 with substitution G426D (protein, listed as Aspergillus terreus)
chain: B1 chain with G426D, L432F
modifications: SIGNAL (1)..(19)
For the molecule B4, the “Relative Activity [%] 1,10-Phenanthroline” value in data set [1] stood at 56.5%. For the same molecule, in data set [4], the “Relative Activity [%] Proflavin hydrochloride” value was 34.2%.

These data come from patent US8969060B2, “Modified glucose dehydrogenase” (Ikeda Food Research Co., Ltd., priority 2011, dated 2015).
